Measured values as given in patent US20250304965A1, “DOUBLE-STRANDED RNA MOLECULE AND PHARMACEUTICAL USE THEREOF” (MACAU UNIVERSITY OF SCIENCE AND TECHNOLOGY, priority 2022, published 2025).
[Ψ] = pseudouridine

Tests used:
Format in all cases: cell-based, human
[1] = test system: A2780 cells; assay: MTT cytotoxicity analysis, ovarian cancer cells A2780
Description: (§1) A2780 and HCT-8 cell lines were cultured in RPMI 1640 medium containing 10% FBS and 1% penicillin/streptomycin. HepG2 cell lines were cultured in MEM medium containing 10% FBS and 1% penicillin/streptomycin. All the above cell lines were cultured at 37° C. in a humidified atmosphere containing 5% CO2.
(§2) In the cytotoxicity analysis, exponentially growing cells of each cancer cell line were inoculated at a density of 5000 cells per well in a 100 μL medium in a 96-well microplate and allowed to adhere for 24 hours prior to treatment. Then obtained RNA molecules at successive concentrations with a nucleic acid transfer vector, namely, Lipofectamine™ RNAiMAX transfection reagent (Thermo Fisher Scientific, United States), were added to the cells. After 48 hours of treatment, MTT solution (50 μL per well, 1 mg/mL solution) was added to each well and incubated at 37° C. for 4 hours. Then 200 μL of dimethyl sulfoxide (DMSO) was added, and an optical density of the resulting solution was measured via calorimetry by using SpectraMax 190 microplate reader (Molecular Devices, United States) at 570 nm. Dose-response curves were obtained and IC50 values were calculated via GraphPad Prism 5 (GraphPad, United States). Each experiment was performed three times.
(§3) Before addition of the MTT solution, the inventor determined the cytotoxic effects and IC 50 of the GL1, GL2, GL4, and GL6 mimics at different concentrations of 6.25 nM, 12.5 nM, 25 nM, 50 nM, 100 nM, and 200 nM on A2780, HCT-8 and HepG2 cells. After 48 hours of the treatment of the double-stranded RNA molecules, the cell viability of these cells was compared with that of the control group and the RNAiMAX group. Paclitaxel was used in a comparative example. […] The results were compared with those of the control group and the RNAiMAX group using the transfection agent. For IC50, refer to Table 4. Paclitaxel was used in a comparative example.
(§4) Then the inventor specifically determined the cytotoxic effects and IC50 of the RNA molecules GL2 mimic and different chemically modified GL10, GL11 and GL12 mimics at different concentrations of 6.25 nM, 12.5 nM, 25 nM, 50 nM, 100 nM, and 200 nM on A2780, HCT-8 and HepG2 cells. […] For IC50, refer to Table 5. Paclitaxel was used in a comparative example.

[2] = test system: HepG2 cells; assay: MTT cytotoxicity analysis, liver cancer cells HepG2
Description: as §1, §2, §3, §4

[3] = test system: HCT-8 cells; assay: MTT cytotoxicity analysis, colorectal cancer cells HCT-8
Description: as §1, §2, §3, §4

B1: GL12 mimic: chemically modified GL2 double-stranded RNA (pseudouridine); antisense SEQ ID NO: 22, sense SEQ ID NO: 26, length 41 (nucleic acid)
antisense: AUAAGGAAUCUGUAGAAGUUCGAUUCUUCUUGGGCUUACCA
sense: UGGUAAGCCCAAGAAGAAUCGAACUUCUACAGAUUCCUUAU
modifications: antisense: RNA, [Ψ] at 20, backbone not given here; sense: RNA, backbone not given here
IC50 ([1]; A2780 ovarian cancer cells, 48 hours of treatment, Lipofectamine RNAiMAX transfection reagent, MTT, read-out: Median inhibitory concentration IC50): 43.7 nM
inhibition of growth and proliferation (cell viability vs control and RNAiMAX group) ([1]; ovarian cancer cells A2780, 6.25-200 nM, 48 hours, FIG. 6-8): have a dose-dependent effect on inhibiting the growth and proliferation
IC50 ([2]; HepG2 liver cancer cells, 48 hours of treatment, Lipofectamine RNAiMAX transfection reagent, MTT, read-out: Median inhibitory concentration IC50): 183 nM
inhibition of growth and proliferation (cell viability vs control and RNAiMAX group) ([2]; liver cancer cells HepG2, 6.25-200 nM, 48 hours, FIG. 6-8): have a dose-dependent effect on inhibiting the growth and proliferation
IC50 ([3]; HCT-8 colorectal cancer cells, 48 hours of treatment, Lipofectamine RNAiMAX transfection reagent, MTT, read-out: Median inhibitory concentration IC50): 32.4 nM
inhibition of growth and proliferation (cell viability vs control and RNAiMAX group) ([3]; colon cancer cells HCT-8, 6.25-200 nM, 48 hours, FIG. 6-8): have a dose-dependent effect on inhibiting the growth and proliferation
